Test results as given in article PMC9958131 (Nature Communications, 2023).

System: PAD2 and PAD4
Test: Citrullination site mapping of fibrinogen and vimentin by trypsin digestion and mass spectrometry (protein-level sheet, one search over native, PAD2-cit and PAD4-cit samples)
Type: biochemical, human
Settings: modified residues found per protein; Deamidated [R..] = deamidated (citrullinated) arginine positions; trypsin digest, Sequest HT; not split by sample (native, PAD2-citrullinated, PAD4-citrullinated fibrinogen and vimentin)
Description: Description: Raw mass spectrometry data for proteolytic mapping of fibrinogen, vimentin, and hnRNP A2/B1 by cathepsins B, S, and H (sheets 1-6); citrullination site mapping of fibrinogen and vimentin by trypsin digestion (sheets 7-8); and the natural antigen processing assay with native, PAD2-citrullinated (PAD2-cit), and PAD4-citrullinated (PAD4-cit) fibrinogen (sheets 9-11).

B1: P01871 (protein)
chain: GSASAPTLFPLVSCENSPSDTSSVAVGCLAQDFLPDSITFSWKYKNNSDISSTRGFPSVLRGGKYAATSQVLLPSKDVMQGTDEHVVCKVQHPNGNKEKNVPLPVIAELPPKVSVFVPPRDGFFGNPRKSKLICQATGFSPRQIQVSWLREGKQVGSGVTTDQVQAEAKESGPTTYKVTSTLTIKESDWLGQSMFTCRVDHRGLTFQQNASSMCVPDQDTAIRVFAIPPSFASIFLTKSTKLTCLVTDLTTYDSVTISWTRQNGEAVKTHTNISESHPNATFSAVGEASICEDDWNSGERFTCTVTHTDLPSPLKQTISRPKGVALHRPDVYLLPPAREQLNLRESATITCLVTGFSPADVFVQWMQRGQPLSPEKYVTSAPMPEPQAPGRYFAHSILTVSEEEWNTGETYTCVVAHEALPNRVTERTVDKSTGKPTLYNVSLVMSDTAGTCY
Modifications: Deamidated [R423]

B2: Q9NSB2 (protein)
chain: MSCRSYRVSSGHRVGNFSSCSAMTPQNLNRFRANSVSCWSGPGFRGLGSFGSRSVITFGSYSPRIAAVGSRPIHCGVRFGAGCGMGFGDGRGVGLGPRADSCVGLGFGAGSGIGYGFGGPGFGYRVGGVGVPAAPSITAVTVNKSLLTPLNLEIDPNAQRVKKDEKEQIKTLNNKFASFIDKVRFLEQQNKLLETKWSFLQEQKCIRSNLEPLFESYITNLRRQLEVLVSDQARLQAERNHLQDVLEGFKKKYEEEVVCRANAENEFVALKKDVDAAFMNKSDLEANVDTLTQEIDFLKTLYMEEIQLLQSHISETSVIVKMDNSRDLNLDGIIAEVKAQYEEVARRSRADAEAWYQTKYEEMQVTAGQHCDNLRNIRNEINELTRLIQRLKAEIEHAKAQRAKLEAAVAEAEQQGEATLSDAKCKLADLECALQQAKQDMARQLCEYQELMNAKLGLDIEIATYRRLLEGEESRLCEGVGPVNISVSSSRGGLVCGPEP
Modifications: Deamidated [R184]

B3: Q12805 (protein, UniProt Q12805 1-493, looked up)
chain: MLKALFLTMLTLALVKSQDTEETITYTQCTDGYEWDPVRQQCKDIDECDIVPDACKGGMKCVNHYGGYLCLPKTAQIIVNNEQPQQETQPAEGTSGATTGVVAASSMATSGVLPGGGFVASAAAVAGPEMQTGRNNFVIRRNPADPQRIPSNPSHRIQCAAGYEQSEHNVCQDIDECTAGTHNCRADQVCINLRGSFACQCPPGYQKRGEQCVDIDECTIPPYCHQRCVNTPGSFYCQCSPGFQLAANNYTCVDINECDASNQCAQQCYNILGSFICQCNQGYELSSDRLNCEDIDECRTSSYLCQYQCVNEPGKFSCMCPQGYQVVRSRTCQDINECETTNECREDEMCWNYHGGFRCYPRNPCQDPYILTPENRCVCPVSNAMCRELPQSIVYKYMSIRSDRSVPSDIFQIQATTIYANTINTFRIKSGNENGEFYLRQTSPVSAMLVLVKSLSGPREHIVDLEMLTVSSIGTFRTSSVLRLTIIVGPFSF
modifications: full-length
Modifications: Deamidated [R185; R208; R227; R328; R345]

B4: A0A0G2JMB2 (protein)
chain: ASPTSPKVFPLSLDSTPQDGNVVVACLVQGFFPQEPLSVTWSESGQNVTARNFPPSQDASGDLYTTSSQLTLPATQCPDGKSVTCHVKHYTNPSQDVTVPCPVPPPPPCCHPRLSLHRPALEDLLLGSEANLTCTLTGLRDASGATFTWTPSSGKSAVQGPPERDLCGCYSVSSVLPGCAQPWNHGETFTCTAAHPELKTPLTANITKSGNTFRPEVHLLPPPSEELALNELVTLTCLARGFSPKDVLVRWLQGSQELPREKYLTWASRQEPSQGTTTFAVTSILRVAAEDWKKGDTFSCMVGHEALPLAFTQKTIDRLAGKPTHVNVSVVMAEVDGTCY
Modifications: Deamidated [R240; R250; R260]

B5: C9JEU5 (protein)
chain: MSWSLHPRNLILYFYALLFLSSTCVAYVATRDNCCILDERFGSYCPTTCGIADFLSTYQTKVDKDLQSLEDILHQVENKTSEVKQLIKAIQLTYNPDESSKPNMIDAATLKSRKMLEEIMKYEASILTHDSSIRYLQEIYNSNNQKIVNLKEKVAQLEAQCQEPCKDTVQIHDITGKVKVDSPSLDCQDIANKGAKQSGLYFIKPLKANQQFLVYCEIDGSGNGWTVFQKRLDGSVDFKKNWIQYKEGFGHLSPTGTTEFWLGNEKIHLISTQSAIPYALRVELEDWNGRTSTADYAMFKVGPEADKYRLTYAYFAGGDAGDAFDGFDFGDDPSDKFFTSHNGMQFSTWDNDNDKFEGNCAEQDGSGWWMNKCHAGHLNGVYYQGGTYSKASTPNGYDNGIIWATWKTRWYSMKKTTMKIIPFNRLTIGEGQQHHLGGAKQAGDV
Modifications: Deamidated [R113; R134; R281; R290; R309; R409; R425]

B6: P0DPH8 (protein, UniProt P0DPH8 1-450, looked up)
chain: MRECISIHVGQAGVQIGNACWELYCLEHGIQPDGQMPSDKTIGGGDDSFNTFFSETGAGKHVPRAVFVDLEPTVVDEVRTGTYRQLFHPEQLITGKEDAANNYARGHYTIGKEIVDLVLDRIRKLADLCTGLQGFLIFHSFGGGTGSGFASLLMERLSVDYGKKSKLEFAIYPAPQVSTAVVEPYNSILTTHTTLEHSDCAFMVDNEAIYDICRRNLDIERPTYTNLNRLIGQIVSSITASLRFDGALNVDLTEFQTNLVPYPRIHFPLATYAPVISAEKAYHEQLSVAEITNACFEPANQMVKCDPRHGKYMACCMLYRGDVVPKDVNAAIATIKTKRTIQFVDWCPTGFKVGINYQPPTVVPGGDLAKVQRAVCMLSNTTAIAEAWARLDHKFDLMYAKRAFVHWYVGEGMEEGEFSEAREDLAALEKDYEEVGVDSVEAEAEEGEEY
modifications: full-length
Modifications: Deamidated [R64; R84; R105; R339; R373; R422]

B7: P03971 (protein, UniProt P03971 1-560, looked up)
chain: MRDLPLTSLALVLSALGALLGTEALRAEEPAVGTSGLIFREDLDWPPGSPQEPLCLVALGGDSNGSSSPLRVVGALSAYEQAFLGAVQRARWGPRDLATFGVCNTGDRQAALPSLRRLGAWLRDPGGQRLVVLHLEEVTWEPTPSLRFQEPPPGGAGPPELALLVLYPGPGPEVTVTRAGLPGAQSLCPSRDTRYLVLAVDRPAGAWRGSGLALTLQPRGEDSRLSTARLQALLFGDDHRCFTRMTPALLLLPRSEPAPLPAHGQLDTVPFPPPRPSAELEESPPSADPFLETLTRLVRALRVPPARASAPRLALDPDALAGFPQGLVNLSDPAALERLLDGEEPLLLLLRPTAATTGDPAPLHDPTSAPWATALARRVAAELQAAAAELRSLPGLPPATAPLLARLLALCPGGPGGLGDPLRALLLLKALQGLRVEWRGRDPRGPGRAQRSAGATAADGPCALRELSVDLRAERSVLIPETYQANNCQGVCGWPQSDRNPRYGNHVVLLLKMQVRGAALARPPCCVPTAYAGKLLISLSEERISAHHVPNMVATECGCR
modifications: full-length
Modifications: Deamidated [R499; R516; R522; R560]

B8: Q9UM07 (protein)
chain: MAQGTLIRVTPEQPTHAVCVLGTLTQLDICSSAPEDCTSFSINASPGVVVDIAHGPPAKKKSTGSSTWPLDPGVEVTLTMKVASGSTGDQKVQISYYGPKTPPVKALLYLTGVEISLCADITRTGKVKPTRAVKDQRTWTWGPCGQGAILLVNCDRDNLESSAMDCEDDEVLDSEDLQDMSLMTLSTKTPKDFFTNHTLVLHVARSEMDKVRVFQATRGKLSSKCSVVLGPKWPSHYLMVPGGKHNMDFYVEALAFPDTDFPGLITLTISLLDTSNLELPEAVVFQDSVVFRVAPWIMTPNTQPPQEVYACSIFENEDFLKSVTTLAMKAKCKLTICPEEENMDDQWMQDEMEIGYIQAPHKTLPVVFDSPRNRGLKEFPIKRVMGPDFGYVTRGPQTGGISGLDSFGNLEVSPPVTVRGKEYPLGRILFGDSCYPSNDSRQMHQALQDFLSAQQVQAPVKLYSDWLSVGHVDEFLSFVPAPDRKGFRLLLASPRSCYKL
Modifications: Deamidated [R123; R137; R156; R205; R212; R218; R372; R374; R383; R394; R419; R427; R441; R484; R488; R495; R536; R544; R550; R555; R609; R639; R650]

B9: P04003 (protein, UniProt P04003 1-597, looked up)
chain: MHPPKTPSGALHRKRKMAAWPFSRLWKVSDPILFQMTLIAALLPAVLGNCGPPPTLSFAAPMDITLTETRFKTGTTLKYTCLPGYVRSHSTQTLTCNSDGEWVYNTFCIYKRCRHPGELRNGQVEIKTDLSFGSQIEFSCSEGFFLIGSTTSRCEVQDRGVGWSHPLPQCEIVKCKPPPDIRNGRHSGEENFYAYGFSVTYSCDPRFSLLGHASISCTVENETIGVWRPSPPTCEKITCRKPDVSHGEMVSGFGPIYNYKDTIVFKCQKGFVLRGSSVIHCDADSKWNPSPPACEPNSCINLPDIPHASWETYPRPTKEDVYVVGTVLRYRCHPGYKPTTDEPTTVICQKNLRWTPYQGCEALCCPEPKLNNGEITQHRKSRPANHCVYFYGDEISFSCHETSRFSAICQGDGTWSPRTPSCGDICNFPPKIAHGHYKQSSSYSFFKEEIIYECDKGYILVGQAKLSCSYSHWSAPAPQCKALCRKPELVNGRLSVDKDQYVEPENVTIQCDSGYGVVGPQSITCSGNRTWYPEVPKCEWETPEGCEQVLTGKRLMQCLPNPEDVKMALEVYKLSLEIEQLELQRDSARQSTLDKEL
modifications: full-length
Modifications: Deamidated [R159; R329; R331; R485; R493]

B10: Q16610 (protein)
chain: MGTTARAALVLTYLAVASAASEGGFTATGQRQLRPEHFQEVGYAAPPSPPLSRSLPMDHPDSSQHGPPFEGQSQVQPPPSQEATPLQQEKLLPAQLPAEKEVGPPLPQEAVPLQKELPSLQHPNEQKEGTPAPFGDQSHPEPESWNAAQHCQQDRSQGGWGHRLDGFPPGRPSPDNLNQICLPNRQHVVYGPWNLPQSSYSHLTRQGETLNFLEIGYSRCCHCRSHTNRLECAKLVWEEAMSRFCEAEFSVKTRPHWCCTRQGEARFSCFQEEAPQPHYQLRACPSHQPDISSGLELPFPPGVPTLDNIKNICHLRRFRSVPRNLPATDPLQRELLALIQLEREFQRCCRQGNNHTCTWKAWEDTLDKYCDREYAVKTHHHLCCRHPPSPTRDECFARRAPYPNYDRDILTIDIGRVTPNLMGHLCGNQRVLTKHKHIPGLIHNMTARCCDLPFPEQACCAEEEKLTFINDLCGPRRNIWRDPALCCYLSPGDEQVNCFN
Modifications: Deamidated [R171; R343]

B11: Q5T749 (protein)
chain: MCDQQQIQCRLPLQQCCVKGPSFCSSQSPFAQSQVVVQAPCEMQIVDCPASCPVQVCQVSDQAPCQSQTTQVKCQSKTKQVKGQAQCQSKTTQVKGQAASQSQTSSVQSQAPCQSEVSYVQCEASQPVQTCFVECAPVCYTETCYVECPVQNYVPCPAPQPVQMYRGRPAVCQPQGRFSTQCQYQGSYSSCGPQFQSRATCNNYTPQFQLRPSYSSCFPQYRSRTSFSPCVPQCQTQGSYGSFTEQHRSRSTSRCLPPPRRLQLFPRSCSPPRRFEPCSSSYLPLRPSEGFPNYCTPPRRSEPIYNSRCPRRPISSCSQRRGPKCRIEISSPCCPRQVPPQRCPVEIPPIRRRSQSCGPQPSWGASCPELRPHVEPRPLPSFCPPRRLDQCPESPLQRCPPPAPRPRLRPEPCISLEPRPRPLPRQLSEPCLYPEPLPALRPTPRPVPLPRPGQCEIPEPRPCLQPCEHPEPCPRPEPIPLPAPCPSPEPCRETWRSPSP
Modifications: Deamidated [R211; R248; R371; R554]
